Assays:
[1] = molecular target: T1, ROM1 (human rod outer segment membrane protein 1, N-terminal Strep3-GFP tag) (human, UniProt Q03395 1-351); test: cryo-EM structure; PRPH2^C150S-ROM1 purified in 25 mM tris-HCl, 150 mM NaCl, pH 7.5, 0.025% DDM/CHS, incubated with an excess of Nanobody19, ~9 mg/ml; single-particle map at 3.7 A; settings: both partners purified
T1 construct: rod outer segment membrane protein 1 (ROM1), human, full length; codon-optimized cDNA from GeneArt in a pUPE vector; Residues 323 to 351 were not modelled in the structure; also called retinal outer segment protein 1; source: HEK293T, transiently transfected together with PRPH2^C150S, solubilized in DDM/CHS, purified (Strep-Tactin, SEC); not shown: Strep3, N-terminal, kept

[2] = molecular target: the molecule itself; test: SEC; PRPH2 and ROM1 (wild type or cysteine mutants) expressed in HEK293T, solubilized in DDM/CHS; Superdex 200 Increase 10/300 GL, 25 mM tris-HCl, 150 mM NaCl, pH 7.5, 0.025% DDM/CHS; no reducing agent
[3] = molecular target: T2, ROM1 (human rod outer segment membrane protein 1, wild type, N-terminal Strep3 tag) (human, UniProt Q03395 1-351); test: cryo-EM structure; wild-type PRPH2-ROM1, one SEC fraction of heterogeneous complexes in 0.025% DDM/CHS, ~3.6 mg/ml; maps of tetramer, hexamer and octamer at ~7-8 A with the heterodimer docked in; the sizes count chains of PRPH2 and ROM1 together; settings: both partners purified
T2 construct: rod outer segment membrane protein 1 (ROM1), human, full length; codon-optimized cDNA from GeneArt in a pUPE vector; source: HEK293T, transiently transfected together with PRPH2, solubilized in DDM/CHS, purified (Strep-Tactin, SEC); not shown: Strep3, N-terminal, kept

[4] = molecular target: T3, PRPH2^C150S-ROM1 heterodimer (human, UniProt P23942;Q03395, C150S, N-acetylglucosamine on Asn229 (density in the map); possible glycosylation at Asn53); test: cryo-EM structure; PRPH2^C150S-ROM1 purified in 25 mM tris-HCl, 150 mM NaCl, pH 7.5, 0.025% DDM/CHS, incubated with an excess of Nanobody19, ~9 mg/ml; single-particle map at 3.7 A; settings: both partners purified
T3 construct: peripherin-2 (PRPH2), human, full length; as m1; rod outer segment membrane protein 1 (ROM1), human, full length; as m2; Formed and purified before Nanobody19 was added; also called PRPH2^C150S-ROM1 complex; PRPH2-ROM1 heterodimer; source: HEK293T, transiently co-transfected, solubilized in DDM/CHS, purified (Strep-Tactin, SEC); not shown: Strep3, N-terminal, kept; copies: 1 + 1

[5] = molecular target: T4, ROM1 (human rod outer segment membrane protein 1, N-terminal Strep3-GFP tag) (human, UniProt Q03395); test: as above; settings: both partners purified
T4 construct: rod outer segment membrane protein 1 (ROM1), human, full length; codon-optimized cDNA from GeneArt in a pUPE vector; Residues 323 to 351 were not modelled in the structure; also called retinal outer segment protein 1; source: HEK293T, transiently transfected together with PRPH2^C150S, solubilized in DDM/CHS, purified (Strep-Tactin, SEC); not shown: Strep3, N-terminal, kept

T2 sequence (Q03395 whole entry): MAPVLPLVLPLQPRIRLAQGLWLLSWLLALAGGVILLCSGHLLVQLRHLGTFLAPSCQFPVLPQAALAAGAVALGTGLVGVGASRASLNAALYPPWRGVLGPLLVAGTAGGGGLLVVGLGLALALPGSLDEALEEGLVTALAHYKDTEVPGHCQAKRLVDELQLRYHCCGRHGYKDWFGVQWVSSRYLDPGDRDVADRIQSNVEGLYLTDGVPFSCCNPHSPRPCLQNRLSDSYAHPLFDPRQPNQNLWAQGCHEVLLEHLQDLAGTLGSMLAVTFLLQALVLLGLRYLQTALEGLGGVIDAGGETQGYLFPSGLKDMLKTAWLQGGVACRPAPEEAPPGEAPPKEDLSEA
T3 sequence (Q03395 whole entry, stated change not applied, one chain of several): as the sequence (Q03395 whole entry) above

B1: PRPH2^C150S (human peripherin-2 with mutation C150S, N-terminal 6x-His tag) (natural protein, UniProt P23942 1-346, looked up)
chain: MALLKVKFDQKKRVKLAQGLWLMNWFSVLAGIIIFSLGLFLKIELRKRSDVMNNSESHFVPNSLIGMGVLSCVFNSLAGKICYDALDPAKYARWKPWLKPYLAICVLFNIILFLVALCCFLLRGSLENTLGQGLKNGMKYYRDTDTPGRSFMKKTIDMLQIEFKCCGNNGFRDWFEIQWISNRYLDFSSKEVKDRIKSNVDGRYLVDGVPFSCCNPSSPRPCIQYQITNNSAHYSYDHQTEELNLWVRGCRAALLSYYSSLMNSMGVVTLLIWLFEVTITIGLRYLQTSLDGVSNPEESESESQGWLLERSVPETWKAFLESVKKLGKGNQVEAEGADAGQAPEAG
modifications: N-acetylglucosamine on Asn229 (density in the map); possible glycosylation at Asn53
notes: peripherin-2 (PRPH2), human, full length; codon-optimized cDNA from GeneArt in a pUPE vector; Residues 322 to 346 were not modelled in the structure; source: HEK293T, transiently transfected together with ROM1, solubilized in DDM/CHS, purified (Strep-Tactin through ROM1, SEC)
B1: binds [1].

B2: PRPH2 (human peripherin-2, wild type, N-terminal 6x-His tag) (natural protein, UniProt P23942 1-346, looked up)
chain: MALLKVKFDQKKRVKLAQGLWLMNWFSVLAGIIIFSLGLFLKIELRKRSDVMNNSESHFVPNSLIGMGVLSCVFNSLAGKICYDALDPAKYARWKPWLKPYLAICVLFNIILFLVALCCFLLRGSLENTLGQGLKNGMKYYRDTDTPGRCFMKKTIDMLQIEFKCCGNNGFRDWFEIQWISNRYLDFSSKEVKDRIKSNVDGRYLVDGVPFSCCNPSSPRPCIQYQITNNSAHYSYDHQTEELNLWVRGCRAALLSYYSSLMNSMGVVTLLIWLFEVTITIGLRYLQTSLDGVSNPEESESESQGWLLERSVPETWKAFLESVKKLGKGNQVEAEGADAGQAPEAG
notes: peripherin-2 (PRPH2), human, full length; codon-optimized cDNA from GeneArt in a pUPE vector; The tag is told for the oligomer preparation; source: HEK293T, transiently transfected together with ROM1, solubilized in DDM/CHS, purified (Strep-Tactin through ROM1, SEC)
B2 was tested, and the “stoichiometry N” value [2] was 2 and the binding result [3] was “binds”.

B3: Nanobody19 (VHH)
VHH: QVQLQESGGGLVQAGGSLRLSCAASTRTTSRYTVGWFCQAPGKEREFVAAVHWSGGSTWYADSVKGRFTISRDNAKNTVYLQMNSLKQEDTAVYYCAAAEPRRYSYYMRPDEYNYWGQGTQVTVSS
notes: modelled in the deposited structure PDB 7ZW1; also called Nb19; source: E. coli BL21(DE3), purified (Ni-NTA, SEC)
For B3, the “stoichiometry N” value [4] was 1 and the binding result [5] was “binds”.
